# Assay results: article PMC9450512
# “And” between values parts separate entries of the source, which are not always exact repeats. Identical values can stand only once.
# Biological target: Catalytic Domain of Human HDAC7 (cdHDAC7), biotinylated (human)
# Experiment: BLI
substance,measurement,value
"Ac-Leu-Gly-Lys(Ac)-NH2 (LGKAc), acetylated peptide derived from histone 4 lysine 12",Kd,720 nM and 1000 nM
